T1: recombinant PCI (with Flag tag) (UniProt P05154)
T1 sequence: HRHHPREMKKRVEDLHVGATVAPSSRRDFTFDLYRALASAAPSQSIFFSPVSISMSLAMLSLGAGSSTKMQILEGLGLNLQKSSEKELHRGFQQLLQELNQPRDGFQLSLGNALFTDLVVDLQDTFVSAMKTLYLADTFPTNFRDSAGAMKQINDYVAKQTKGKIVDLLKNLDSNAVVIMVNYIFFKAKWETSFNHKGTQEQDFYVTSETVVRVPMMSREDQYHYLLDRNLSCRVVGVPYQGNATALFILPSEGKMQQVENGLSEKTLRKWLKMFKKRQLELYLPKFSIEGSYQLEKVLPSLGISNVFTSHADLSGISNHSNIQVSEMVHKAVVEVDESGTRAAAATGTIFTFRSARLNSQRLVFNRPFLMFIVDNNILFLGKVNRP


Key:
[1] = biological target: T1, recombinant PCI (with Flag tag)
[2] = biological target: activated protein C (aPC; protein C from human plasma, activated, SIGMA P-2200) (human, UniProt P04070 43-461); assay: cell-based or functional assay
Sequence of activated protein C (aPC; protein C from human plasma, activated, SIGMA P-2200) (P04070 43-461): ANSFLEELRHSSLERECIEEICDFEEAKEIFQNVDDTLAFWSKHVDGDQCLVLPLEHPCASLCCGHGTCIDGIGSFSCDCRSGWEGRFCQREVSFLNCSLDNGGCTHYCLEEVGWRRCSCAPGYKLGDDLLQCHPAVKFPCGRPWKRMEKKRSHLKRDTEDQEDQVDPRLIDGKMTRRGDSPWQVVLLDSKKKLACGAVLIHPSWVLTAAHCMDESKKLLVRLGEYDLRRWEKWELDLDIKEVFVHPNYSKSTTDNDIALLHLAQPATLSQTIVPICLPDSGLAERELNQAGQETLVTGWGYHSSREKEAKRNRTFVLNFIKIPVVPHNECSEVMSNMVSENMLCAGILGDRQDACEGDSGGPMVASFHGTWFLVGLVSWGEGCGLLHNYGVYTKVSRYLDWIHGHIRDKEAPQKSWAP

Molecule	absorbance (at 405 nm), substrate S-2366; CONTROL (aPC with PCI, no antibody), AVERAGE (absorbance at 405 nm) [1]	absorbance (at 405 nm), substrate S-2366; CONTROL (aPC with PCI, no antibody), first replicate (absorbance at 405 nm) [1]	absorbance (at 405 nm), substrate S-2366; CONTROL (aPC with PCI, no antibody), second replicate (absorbance at 405 nm) [1]	…ON SUPPRESSION RATE (%), EXPERIMENT 1 (APTT coagulation time, human plasma) [2] [%]	…ON SUPPRESSION RATE (%), EXPERIMENT 2 (APTT coagulation time, human plasma) [2] [%]
activated protein C (aPC; protein C from human plasma, activated, SIGMA P-2200)	0.262	0.278	0.245		
anti-aPC antibody aPC#79 (hybridoma well No. 79) (antibody, IgG2b, V domains shown) VH: QVQLQQSGAELARPGASVKLSCKASGYTFTDSYMNWVKQRTGQGLEWIGEVYPETGNSYYNEKFKGKATLTADRSSKTAYMQLNSLTSEDSAVYFCTRGGTGFDYWGQGTTLTVSS VL: QIVLAQSPAIMSASLGERVTMTCTASSSVSSSYLHWYQQKPGSSPKAWIYSTSNLASGAPTRFSGSGSGTSYSLTISSMEAEDAATYYCHQYHRSPFTFGSGTKLEIK				88	68.3
anti-aPC antibody aPC#281 (hybridoma well No. 281) (antibody, IgG1, V domains shown) VH: QIQLVQSGPELEKPGETVRISCKASGYTFTDYSLHWVKQAPGKGLKWMGWINTETGEPTYADDLKGRFAFSLETSATTAYLQINNLKNEDTATYFCARGITLDYWGQGTSLTVSS VL: DNVMSQSPSSLAVSVGEKVTMSCKSSQSLLSSSNQKNFLAWYQQKPGQSPKLLISWASTRHSGVPDRFTGSGSGTDFTLTISSVNAEDLAVYYCQQYYRYPLTFGAGTKLELK				33.8	21.6
anti-aPC antibody aPC#123 (hybridoma well No. 123) (antibody, IgG2b, V domains shown) VH: QVQLQQSGPELVKPGASVKISCKASGYAFSSSWMNWVKQRPGQGLEWIGRIYPGDGDTNYNGKFRGKATLTADKSSSTAYMQLTSLTSVDSAVYFCARWGITTAAWFAYWGQGTLVTVSA VL: DIQMTQSPASLSASVGETVTITCRTSENIYSYLAWYQQKQGKSPQLLVNNAKTLAEGVPSRFSGSGSGTQFSLKINSLQPEDFGTYYCQHYYGTPPTFGGGTKLEIK				23.4	20.7
anti-aPC antibody aPC#285 (hybridoma well No. 285) (antibody, IgG1, V domains shown) VH: QVQLQQSGSEVVKPGASVKISCKASGYAFSRSWMNWVKQRPGQGLEWIGRIYPGDGDSIYNGKFKGKATLTADKSSTTAYMHLNSLTSVDSAVYFCARWGSSGSSWFAYWGQGTLVTVSA VL: DIQMTQSPASLSASMGETVTITCRTSENIYSYLAWYRQKQGKSPQLLVYNAKTLAEGVPSRFSGSGSGTQFSLRINSLQPEDFGSYFCQHYYGSPYTFGGGTKLEIK				24.5	28.2
